In PMC4803055:

Biological target: T1, Mte1 (YGR042W) (Saccharomyces cerevisiae, UniProt P53227 1-271)
T1 sequence: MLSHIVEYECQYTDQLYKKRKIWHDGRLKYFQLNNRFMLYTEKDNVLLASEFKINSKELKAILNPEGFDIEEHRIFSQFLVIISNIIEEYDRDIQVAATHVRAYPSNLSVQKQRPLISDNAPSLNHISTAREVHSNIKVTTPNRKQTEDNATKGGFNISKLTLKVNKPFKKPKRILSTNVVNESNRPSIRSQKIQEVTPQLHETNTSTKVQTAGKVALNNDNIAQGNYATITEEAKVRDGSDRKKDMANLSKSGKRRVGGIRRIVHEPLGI
Experiment: EMSA

In the case of AGCTATGACCATGATTACGAATTGCTTAATTCGTGCAGGCATGGTAGCT (ssDNA) [ssDNA (oligo 1)], the Kd is reported as 16 ± 3 nM.
